Laboratory results from paper PMC10643122.

Legend:
[1] = molecular target: full-length LRRK1 (Leucine Rich Repeat Kinase 1) (human) (UniProt Q38SD2); experiment: mass photometry; full-length LRRK1 diluted to 100 nM in 20 mM HEPES pH 7.4, 150 mM NaCl, 2.5 mM MgCl2, 1 mM GDP, 0.5 mM TCEP, 0.5% glycerol; 30 min at room temperature; Refeyn TwoMP; Gaussian fits of the histograms, law of mass action; dimer to monomers; estimated Kd
[2] = molecular target: full-length LRRK1 (Leucine Rich Repeat Kinase 1) (human) (UniProt Q38SD2); experiment: cryo-EM structure; 5.2 μM LRRK1(FL) with GDP, 0.06% brij-35 added directly before vitrification; C2 symmetry

Kd [1]: 600 nM | stoichiometry N [2]: 2
Substance: full-length LRRK1 (Leucine Rich Repeat Kinase 1), Q38SD2-1 1-2015
